Results: patent publication US20250152742A1, “COMPOSITIONS AND METHODS FOR NEUROLOGICAL DISEASES” (Trames Bio, Inc., priority 2022, published 2025)
Substitutions are numbered along the chain they refer to. Names may count otherwise.

Tested on: engineered chimeric receptor SEQ ID NO: 33 and its mutants (human α7-nAChR ligand binding domain / human GlyRα1 ion pore domain) in Lenti-X 293T cells
Assay: YFP fluorescence quenching anion reporter plate reader assay (percent quench, EC50)
Format: cell-based
Conditions: for YFP fluorescence quenching using CNL001 (percent quench): receptor named in row; for YFP fluorescence quenching using Varenicline, 3 nM var: ligand Varenicline 3 nM; for YFP fluorescence quenching using Varenicline, 30 nM var: ligand Varenicline 30 nM; for YFP fluorescence quenching using Varenicline, 300 nM var: ligand Varenicline 300 nM; for YFP fluorescence quenching using Varenicline, 500 nM var: ligand Varenicline 500 nM; for YFP fluorescence quenching using Varenicline, 1 uM var: ligand Varenicline 1 uM; for EC50: ligand TC-5619, YFP plate reader
Procedure, shortened: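 Lenti-X 293T cells co-expressing an anion-quenchable YFP were transiently transfected with receptor DNA, then ligand was added in NaI-substituted buffer (pH 7.2) after 30 min at 37 °C. Fluorescence was read about 2 min; percent quench = mean of last 10 s over 15 s pre-ligand baseline.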

[1] = 1 nM CNL001, first column so headed
[2] = 1 nM CNL001, second column so headed
[3] = 1 nM brd (TC-5619/Bradanicline)
[4] = 3 nM brd (TC-5619/Bradanicline)
[5] = 10 nM CNL001, first column so headed
[6] = 10 nM CNL001, second column so headed
[7] = 10 nM brd (TC-5619/Bradanicline)
[8] = 30 nM brd (TC-5619/Bradanicline)
[9] = 50 nM CNL001, first column so headed
[10] = 50 nM CNL001, second column so headed
[11] = 100 nM CNL001, first column so headed
[12] = 100 nM CNL001, second column so headed
[13] = 100 nM brd (TC-5619/Bradanicline)
[14] = 300 nM brd (TC-5619/Bradanicline)
[15] = 1 uM CNL001, first column so headed
[16] = 1 uM CNL001, second column so headed

B1: CODA1048: engineered receptor: R101F, Y210F in SEQ ID NO: 33 (protein)
chain: MRCSPGGVWLALAASLLHVSLQGEFQRKLYKELVKNYNPLERPVANDSQPLTVYFSLSLLQIMDVDEKNQVLTTNIWLQMSWTDHYLQWNVSEYPGVKTVFFPDGQIWKPDILLYNSADERFDATFHTNVLVNSSGHCQYLPPGIFKSSCPMDLKNFPMDVQTCKLKFGSWSYGGWSLDLQMQEADISGYIPNGEWDLVGIPGKRSERFFECCKEPYPDVTFTVTMRRRMGYYLIQMYIPSLLIVILSWISFWINMDAAPARVGLGITTVLTMTTQSSGSRASLPKVSYVKAIDIWMAVCLLFVFSALLEYAAVNFVSRQHKELLRFRRKRRHHKSPMLNLFQEDEAGEGRFNFSAYGMGPACLQAKDGISVKGANNSNTTNPPPAPSKSPEEMRKLFIQRAKKIDKISRIGFPMAFLIFNMFYWIIYKIVRREDVHNQ
modifications: synthetic sequence of chimeric LGIC
YFP fluorescence quenching using CNL001 (percent quench) [1]: 9.114%
YFP fluorescence quenching using CNL001 (percent quench) [2]: 0.845%
YFP fluorescence quenching using TC-5619/Bradanicline (percent quench) [3]: −2.084%
YFP fluorescence quenching using TC-5619/Bradanicline (percent quench) [4]: −9.098%
YFP fluorescence quenching using CNL001 (percent quench) [5]: 28.944%
YFP fluorescence quenching using CNL001 (percent quench) [6]: 53.629%
YFP fluorescence quenching using TC-5619/Bradanicline (percent quench) [7]: −2.587%
YFP fluorescence quenching using TC-6683 (percent quench) (30 nM TC-6683): −29.055%
YFP fluorescence quenching using TC-5619/Bradanicline (percent quench) [8]: 55.818%
YFP fluorescence quenching using CNL001 (percent quench) [9]: 68.581%
YFP fluorescence quenching using CNL001 (percent quench) [10]: 74.379%
YFP fluorescence quenching using ABT-126 (percent quench) (50 nM abt (ABT-126)): −23.28%
YFP fluorescence quenching using CNL001 (percent quench) [11]: 80.541%
YFP fluorescence quenching using CNL001 (percent quench) [12]: 80.774%
YFP fluorescence quenching using ABT-126 (percent quench) (100 nM abt (ABT-126)): −21.78%
YFP fluorescence quenching using TC-5619/Bradanicline (percent quench) [13]: 76.957%
YFP fluorescence quenching using TC-6683 (percent quench) (300 nM TC-6683): −33.935%
YFP fluorescence quenching using ABT-126 (percent quench) (300 nM abt (ABT-126)): −19.35%
YFP fluorescence quenching using TC-5619/Bradanicline (percent quench) [14]: 74.268%
YFP fluorescence quenching using CNL001 (percent quench) [15]: 83.143%
YFP fluorescence quenching using CNL001 (percent quench) [16]: 81.751%
YFP fluorescence quenching using ABT-126 (percent quench) (1 uM abt (ABT-126)): −16.33%
YFP fluorescence quenching using TC-6683 (percent quench) (3 uM TC-6683): −24.613%
YFP fluorescence quenching using TC-6683 (percent quench) (30 uM TC-6683): −21.752%
YFP fluorescence quenching using TC-6683 (percent quench) (100 uM TC-6683): −22.815%
YFP fluorescence quenching (percent quench) (100 uM ach (acetylcholine)): −17.31%
YFP fluorescence quenching (percent quench) (300 uM ach (acetylcholine)): −13.7%
YFP fluorescence quenching (percent quench) (500 uM ach (acetylcholine)): −10.1%
YFP fluorescence quenching (percent quench) (1 mM ach (acetylcholine)): 5.53%
YFP fluorescence quenching (percent quench) (3 mM ach (acetylcholine)): 68.61%
YFP fluorescence quenching (percent quench) (10 mM ach (acetylcholine)): 78.22%
YFP fluorescence quenching using Varenicline, 3 nM var (first column): −17.119
YFP fluorescence quenching using Varenicline, 3 nM var (second column): −13.234
YFP fluorescence quenching using Varenicline, 30 nM var (first column): −7.747
YFP fluorescence quenching using Varenicline, 30 nM var (second column): 4.193
YFP fluorescence quenching using Varenicline, 300 nM var (first column): 4.149
YFP fluorescence quenching using Varenicline, 300 nM var (second column): 1.512
YFP fluorescence quenching using Varenicline, 500 nM var (first column): −1.572
YFP fluorescence quenching using Varenicline, 500 nM var (second column): 3.71
YFP fluorescence quenching using Varenicline, 1 uM var (first column): 8.414
YFP fluorescence quenching using Varenicline, 1 uM var (second column): 4.091

B2: COAD1055 (protein)
chain: B1 chain with F101W, Y115E, F210W
modifications: synthetic sequence of chimeric LGIC
EC50: 23.5 nM

B3: COAD1056 (protein)
chain: B1 chain with Y115E, F210W
modifications: synthetic sequence of chimeric LGIC
EC50: 25.1 nM

B4: CODA1054: engineered receptor: R101M, L131F in SEQ ID NO: 33 (protein)
chain: B1 chain with F101M, L131F, F210Y
modifications: synthetic sequence of chimeric LGIC
YFP fluorescence quenching using CNL001 (percent quench) [1]: 21.932%
YFP fluorescence quenching using CNL001 (percent quench) [2]: 39.689%
YFP fluorescence quenching using TC-5619/Bradanicline (percent quench) [3]: 6.609%
YFP fluorescence quenching using TC-5619/Bradanicline (percent quench) [4]: −7.635%
YFP fluorescence quenching using CNL001 (percent quench) [5]: 54.192%
YFP fluorescence quenching using CNL001 (percent quench) [6]: 64.111%
YFP fluorescence quenching using TC-5619/Bradanicline (percent quench) [7]: 4.459%
YFP fluorescence quenching using TC-6683 (percent quench) (30 nM TC-6683): −22.996%
YFP fluorescence quenching using TC-5619/Bradanicline (percent quench) [8]: 69.782%
YFP fluorescence quenching using CNL001 (percent quench) [9]: 71.409%
YFP fluorescence quenching using CNL001 (percent quench) [10]: 70.989%
YFP fluorescence quenching using ABT-126 (percent quench) (50 nM abt (ABT-126)): −19.54%
YFP fluorescence quenching using CNL001 (percent quench) [11]: 74.148%
YFP fluorescence quenching using CNL001 (percent quench) [12]: 71.722%
YFP fluorescence quenching using ABT-126 (percent quench) (100 nM abt (ABT-126)): −18.28%
YFP fluorescence quenching using TC-5619/Bradanicline (percent quench) [13]: 77.633%
YFP fluorescence quenching using TC-6683 (percent quench) (300 nM TC-6683): −27.055%
YFP fluorescence quenching using ABT-126 (percent quench) (300 nM abt (ABT-126)): −16.87%
YFP fluorescence quenching using TC-5619/Bradanicline (percent quench) [14]: 72.933%
YFP fluorescence quenching using CNL001 (percent quench) [15]: 71.378%
YFP fluorescence quenching using CNL001 (percent quench) [16]: 71.411%
YFP fluorescence quenching using ABT-126 (percent quench) (1 uM abt (ABT-126)): −11.77%
YFP fluorescence quenching using TC-6683 (percent quench) (3 uM TC-6683): −18.611%
YFP fluorescence quenching (percent quench) (10 uM ach (acetylcholine)): −3.98%
YFP fluorescence quenching using TC-6683 (percent quench) (30 uM TC-6683): −13.879%
YFP fluorescence quenching using TC-6683 (percent quench) (100 uM TC-6683): −21.521%
YFP fluorescence quenching (percent quench) (100 uM ach (acetylcholine)): −10.34%
YFP fluorescence quenching (percent quench) (300 uM ach (acetylcholine)): −10.25%
YFP fluorescence quenching (percent quench) (500 uM ach (acetylcholine)): −11.46%
YFP fluorescence quenching (percent quench) (1 mM ach (acetylcholine)): 1.77%
YFP fluorescence quenching (percent quench) (3 mM ach (acetylcholine)): 36.81%
YFP fluorescence quenching (percent quench) (10 mM ach (acetylcholine)): 74.02%
YFP fluorescence quenching using Varenicline, 3 nM var (first column): 34.923
YFP fluorescence quenching using Varenicline, 3 nM var (second column): 28.944
YFP fluorescence quenching using Varenicline, 30 nM var (first column): 42.214
YFP fluorescence quenching using Varenicline, 30 nM var (second column): 43.015
YFP fluorescence quenching using Varenicline, 300 nM var (first column): 47.059
YFP fluorescence quenching using Varenicline, 300 nM var (second column): 52.768
YFP fluorescence quenching using Varenicline, 500 nM var (first column): 59.542
YFP fluorescence quenching using Varenicline, 500 nM var (second column): 62.641
YFP fluorescence quenching using Varenicline, 1 uM var (first column): 71.449
YFP fluorescence quenching using Varenicline, 1 uM var (second column): 69.145
